# From PMC12350162 (Nature, 2025)
# Target: the molecule itself
# Assay: cryo-EM structure; 1-MDa fraction of the Superose 6 Increase step, 1 mg/ml, frozen anaerobically at once after purification; Titan Krios G3i, K3; focused maps of Hdr(ABC)2 and of the Elp arm in two conformational states
protein,measurement,value
"heterodisulfide reductase HdrABC (complex, also called Hdr(ABC)2; (HdrABC)2) chain 1: MAEEKKETMEEPKIGVYVCHCGVNIGGVVDVEAVRDYAAKLPNVVIAKDYKYYCSDPGQLEIQKDIKELGINRVVVAACSPRLHEPTFRRCVEEAGLNQFLFEFANIREHDSWVHMDNPEGATEKAKDLVRMAVAKARLLEPLEASKVSVDDKALVIGGGVAGIQAALDLADMGFKTYMVEKRPSISGRMGQLDKTFPTLDCSMCILAPKMVDVGKHDNIELITYAEVKEVDGYIGNFKVKIEKKPRYIDEELCTGCGSCVEVCPIEMPNYFDEGIGMTKAVYIPFPQAVPLCATIDKDYCIECMLCDEVCERGAVKHDQEPEEIEIEVGTIIVATGYDAYDPTEKLEYGYGRHTNVITGLELERMINASGPTDGKVLKPSDGEKPKRVAFIHCVGSRDEQIGKPYCSRVCCMYIMKNAQLIKDKMPDTEVTLYYMDIRAFGKGFEEFYKRSQEKYGIKFIRGRPAEVIENPDLTLTVRSEDTLLGKVTEYDYDMVVLGVGLVPPEGAETLRQTIGLSKSADGFLMEAHPKLRPVDTLTDGVYLAGVAQGPKDIPDAVAQASGAAARAAIPMVKGEVEIEPIIAVTDSDVCGGCEVCIELCPFGAISIEEGHANVNVALCKGCGTCVAACPSGAMDQQHFKTEQIMAQIEAALNEPASK chain 2: not shown chain 3: MTLLQREENIIRKGNIDKEFSEKIKAAGGDSLEYCFQCGTCTGSCPSGRRTPYRVRQIIRKANVGLKDEIISDPTLWMCTTCYSCQERCPRKVKIVDVVKLARNEAAKAGFMAPAHKAVGSFVIKTGHGVPINDATMELRKAVGLGELPPTTHQFPEALEEVQKIIKATGFDQLIGYNWETGELE",stoichiometry N,2
